# Assay results reported in the DeepSol protein solubility set.
# Assay: soluble on expression in E. coli; label from the status in PepcDB or PDB records
row,Sequence,soluble on expression in E. coli
1,MGSDKIHHHHHHMKGAAFVKKEGLKQKALEIGRVPTHLKLEIEDYGGDDKRAHFCWADPQDENTGIIVELGPDGELESLSRDIEPESGERLSEEKLEDIMRQFVETHHPGALSAFVREENDRAYGDKVRFSYVQMEAGLPLPMSGFMADVSLSGEIVYFRYYGEAGSIIKPKRVADVEEALAFIKKDVEFDLLFEVLHRSVYKNGDDQPHLVYEPEGRAITVPADLVQEEQAVDDDDDYREPESFPLPLFEGIREKADPDSMIGIENGFVKEREADLGDGRIGIVWRNPDDPVYQPADKSMDSWFKGRTHQVLKTIYNKETGKLEGVMSFMEKKGPLTVTLAECEKIALRFLFALFPNADQYFRIRYDEKDEEENAVAGFTFEAHCHGVPLRFGQIRICVSRQTGYITVYMGPDIDPNKLATIDPVPAISVEQAKSIFWQHFKVELGWEREYGDDEEHSYRLVYKPVYPHFIDAHTGEPVFSIW,not soluble
2,MKRVFVTVGTTSFDDLIARVVAHDSVQILKNLGYNQLVLQIGRGTVVPEPFSTESFTLDVYRYKDSLKEDLQQADLVISHAGAGSCLESLEKGKPLVVVVNEKLMNNHQFELAKQLHREGHLFYCTCSMLPELLQSMDLSTLKCYPPGQPEKFSAFLDKVVGLQK,soluble
3,MSLSAPLGENMSNLTSEERHARLRQIYIEKERRQRLGSRMGLSPLEEEANDRLMAIRQVDEEFYNLWRNYHSQPPPFLKHLNIIDTNLYAALKSMPKGGLLHVHDSGMLRMEILIDLIYRDNLWVCVNLEQDFEDFRFSRYFPHIPPAEDYQCNWMLMSNFFQLESRLEFENRLRKILTVRPEGYKSSSELVRHLRRHQRIIHGLITFRPIWSEFIFTMLSDFYADGVHYVELRSSLPNMYDLDGNNFTILETAEALVSVSNIFKNSFKDFIGIKLIYAPSRNLNDSRMDEYLENARLLKLHFPNFFAGFDLNTFGDECNLPLLENVTQLLRIGKNIDFYFHAGESRCPDSSRPDANLLEALLLQSKRIGNAVNLPFHPEIMKVMKRLSIAVEICPLSNHYLQYFNDFRQHPAAYLIAAGFPIVIGSDYPCFWNSAPLTDDFYVAFVGVISGWGDLRLLKQFALNSFLFSSLSETEKNMAVSKWQCSWNRWVRNLVNSSGYEGHHHHHH,not soluble
4,MMMDLNIRRVVLDVDKGLNRPTLVELAAAIEKVQGVEAVNIIVTEMDMETMGTNITVEGTNINYDELIETIENTGSAIHSVDEIAVGKRLIENVRRNQN,soluble
5,MKVNNTIVVSIGQAGNQIAASFWKTVCLEHGIDPLTGQTAPGVAPRGNWSSFFSKLGESSSGSYVPRAIMVDLEPSVIDNVKATSGSLFNPANLISRTEGAGGNFAVGYLGAGREVLPEVMSRLDYEIDKCDNVGGIIVLHAIGGGTGSGFGALLIESLKEKYGEIPVLSCAVLPSPQVSSVVTEPYNTVFALNTLRRSADACLIFDNEALFDLAHRKWNIESPTVDDLNLLITEALAGITASMRFSGFLTVEISLRELLTNLVPQPSLHFLMCAFAPLTPPDRSKFEELGIEEMIKSLFDNGSVFAACSPMEGRFLSTAVLYRGIMEDKPLADAALAAMREKLPLTYWIPTAFKIGYVEQPGISHRKSMVLLANNTEIARVLDRICHNFDKLWQRKAFANWYLNEGMSEEQINVLRASAQELVQSYQVAEESGAKAKVQDSAGDTGMRAAAAGVSDDARGSMSLRDLVDRRR,soluble
6,VPTPKRPRGRPKGSKNKGAAKTRKT,soluble
7,EDFAKSIQDFIENGKTLEDFRKDFDKIVAKHGWQYNGGRNWRSRIIYETNLRSSYQAGRYAQLQELKETMPYWEYVHNDAVTYPRVEHMHWDGLILRHDDPWWKTHFPINAWGCQCTVI,not soluble
8,MSLQNVESELKDIRLPYKTKSLCPECLKILEAEVYEENGKVMIRKVCEEHGEFVDVYWGDAEMFKKAARFAADGHGISTPITQNTTCPFSCGLCNNHKSHTALLNIVLTNRCDLACWYCFFYARRAGYVYEPTIEQIREMVRKAKNMKPIGCNAVQLTGGEPTLRDDLIDIIRMIKEEGYDHIQLNTNGIRLAEDPDFALRVRVAGVNTVYLSFDGVDEKTNPKNHHEIPKILENCRRAQLGLVLVPTVIKGVNDHQLGDIIRFAAENIDIVRGVNFQPVSLVGSMPRKEREQFRITIPDCIKAIEEQTNGEIGREDFYPVPSVVPISRFVEALTGQPQYELTTHFACGMATYIFKDNGRLIPITRFVDVEGLFEFLNEKAEEIAKSRMKTIRAIKDIIDLRKFVDTSKAPKGFNIAKILYEVLIKHDYSTLGEFHVKSLFIGMMHFQDLYNYDIARVERCEIHYGSPDGRIIPFCTFNVIPERYRDAIHEKYGIPIEEWEKRTGRKLKDDIKRAVRRPEGHHHHHH,soluble
